Results from US20210388087A1 (Chugai, published 2021).
Substitutions are numbered along the chain they refer to. Names and notes keep the numbering of the source.

B1: dBBDu183H S62F / dBBDu072L (antibody, name in Kabat numbering, V domains shown)
VH: QVQLVESGGGLVQPGRSLRLSCAASGFTFSNAWMHWVRQAPGKGLEWVAQIKDKGNAYAAYYAPFVKGRFTISRDDSKNSIYLQMNSLKTEDTAVYYCHYVHYASASTVLPAFGVDAWGQGTTVTVSS
VL: DIVMTQSPLSLPVTPGEPASISCQASQELVHMNRNTYLHWYQQKPGQAPRLLIYKVSNRFPGVPDRFSGSGSGTDFTLKISRVEAEDVGVYYCAQGTSVPFTFGQGTKLEIK
notes: as m1, one VH change
B2: dBBDu183H S99T / dBBDu072L (antibody, name in Kabat numbering, V domains shown)
VH: B1 VH with F65S, S105T
VL: B1 VL
notes: as m1, one VH change
B3: dBBDu183H S99H / dBBDu072L (antibody, name in Kabat numbering, V domains shown)
VH: B1 VH with F65S, S105H
VL: B1 VL
notes: as m1, one VH change
B4: dBBDu183H S62T / dBBDu072L (antibody, name in Kabat numbering, V domains shown)
VH: B1 VH with F65T
VL: B1 VL
notes: as m1, one VH change
B5: dBBDu183H S62V / dBBDu072L (antibody, name in Kabat numbering, V domains shown)
VH: B1 VH with F65V
VL: B1 VL
notes: as m1, one VH change
B6: dBBDu183H S99R / dBBDu072L (antibody, name in Kabat numbering, V domains shown)
VH: B1 VH with F65S, S105R
VL: B1 VL
notes: as m1, one VH change
B7: dBBDu183H S62N / dBBDu072L (antibody, name in Kabat numbering, V domains shown)
VH: B1 VH with F65N
VL: B1 VL
notes: as m1, one VH change
B8: dBBDu183H S62R / dBBDu072L (antibody, name in Kabat numbering, V domains shown)
VH: B1 VH with F65R
VL: B1 VL
notes: as m1, one VH change
B9: dBBDu183H S62K / dBBDu072L (antibody, name in Kabat numbering, V domains shown)
VH: B1 VH with F65K
VL: B1 VL
notes: as m1, one VH change
B10: dBBDu183H S62W / dBBDu072L (antibody, name in Kabat numbering, V domains shown)
VH: B1 VH with F65W
VL: B1 VL
notes: as m1, one VH change
B11: dBBDu183H S99Y / dBBDu072L (antibody, name in Kabat numbering, V domains shown)
VH: B1 VH with F65S, S105Y
VL: B1 VL
notes: as m1, one VH change
B12: dBBDu183H S62Y / dBBDu072L (antibody, name in Kabat numbering, V domains shown)
VH: B1 VH with F65Y
VL: B1 VL
notes: as m1, one VH change
B13: dBBDu183H S62H / dBBDu072L (antibody, name in Kabat numbering, V domains shown)
VH: B1 VH with F65H
VL: B1 VL
notes: as m1, one VH change
B14: dBBDu183H S62Q / dBBDu072L (antibody, name in Kabat numbering, V domains shown)
VH: B1 VH with F65Q
VL: B1 VL
notes: as m1, one VH change
B15: dBBDu183H S99K / dBBDu072L (antibody, name in Kabat numbering, V domains shown)
VH: B1 VH with F65S, S105K
VL: B1 VL
notes: as m1, one VH change
B16: dBBDu183H S99G / dBBDu072L (antibody, name in Kabat numbering, V domains shown)
VH: B1 VH with F65S, S105G
VL: B1 VL
notes: as m1, one VH change
B17: dBBDu183H S62G / dBBDu072L (antibody, name in Kabat numbering, V domains shown)
VH: B1 VH with F65G
VL: B1 VL
notes: as m1, one VH change
B18: dBBDu183H S99Q / dBBDu072L (antibody, name in Kabat numbering, V domains shown)
VH: B1 VH with F65S, S105Q
VL: B1 VL
notes: as m1, one VH change

molecular target: T1, Human CD137 ECD (human); experiment: SPR, vs parent H183/L072
T1 construct: also called 4-1BB
T1 sequence (chain, as listed by the source limits assumed): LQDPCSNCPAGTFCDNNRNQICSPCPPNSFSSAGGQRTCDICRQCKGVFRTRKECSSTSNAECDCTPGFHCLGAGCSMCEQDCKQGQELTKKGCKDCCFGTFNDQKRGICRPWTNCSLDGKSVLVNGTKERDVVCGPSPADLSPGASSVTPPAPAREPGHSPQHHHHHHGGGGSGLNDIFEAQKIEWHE

Binder | fold change of affinity [fold]
B1 | 0.5
B2 | 0.6
B3 | 1.5
B4 | 1
B5 | 0.9
B6 | 1.1
B7 | 0.9
B8 | 1.1
B9 | 0.9
B10 | 0.8
B11 | 0.5
B12 | 0.7
B13 | 0.9
B14 | 1
B15 | 1.2
B16 | 1
B17 | 1
B18 | 0.6
